Substrate in the data set: O=C(O)CC(S)C(=O)O
Put plainly: oxygen consumption, oxygen electrode, nonlinear regression. The class given is biochemical, Advenella mimigardefordensis. The conditions noted are these: 100 mM Tris/HCl pH 7.4, 0.05-75 mM MS, 2 ug/ml enzyme, O2 co-substrate.

One protein from PMC5373536, “Proteomic analysis of organic sulfur compound utilisation in Advenella mimigardefordensis strain DPN7^T” (PLoS ONE, 2017) can be followed below.

Broadly, the Km is the concentration of substrate that gives half-maximal velocity.

B1: MsdoDPN7 (MsdoAm; MIM_c37420) (Advenella mimigardefordensis DPN7) (protein)
chain: MTSKQDKQVAIRQFIDITKDIDSAQLDREKLAKIRDALVGIAAHKEWWGQDLYPAPTGDELQARYLIHAEPDNSYALYLNVMKPGKKIVPHNHTTWACIAAVEGVESNYLYERTDDGSVPGHATVVQTGMQAVEPGHGIALMPDDIHAVRIEDDNIRHLHMYGRALETLTERMAFDTSNNTCKIMDVGVKTQRSKG
notes: full gene in pET-19b (NdeI/XhoI), N-terminal His tag, expressed in E. coli BL21(DE3) pLysS, Ni-NTA purified; tag removal not mentioned
Consider B1, for which the Km was 200 µM.
